Variants at the floor of the assay were thinned out.
B1: TPR 5TU (parent)
chain: GGAUCUUCUCGAUCUAACAAAAAAGACAAAUCUGCCACAAAGCUUGAGAGCAUCUUCGGAUGCAGAGGCGGCAGCCUUCGGUGGCGCGAUAGCGCCAACGUUCUCAACUAUGACACGCAAAACGCGUGCUCCGUUGAAUGGAGUUUAUCAUG

Variants of: B1
Assay: polymerase ribozyme fitness, log enrichment relative to wild type (log ratio); higher = more active; in vitro selection for triplet polymerase activity
Summary of the method: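 Input and output libraries were sequenced on Illumina after a single in vitro selection round, run in triplicate on PCR-built, transcribed mutant libraries of each subunit of a heterodimeric triplet polymerase ribozyme. Selection annealed libraries to a biotinylated primer, the partner subunit and triplets, incubated them frozen at −7 °C, then gel-excised extended constructs for streptavidin-bead capture and RT-PCR. Genotypes with ≥10 input reads and ≥1 read per output were kept. Fitness is the logarithm, taken in base 2, of genotype enrichment divided by wild-type enrichment, using inverse-variance-weighted replicate averages.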

Point of comparison: A23G U56A, “polymerase ribozyme fitness (log ratio)” value -2.39. Against it:
- G25U G92C A115G — lower, -3.33
- A23U C79U U101G G141C — lower, ≤ -4.2
- G25A U31A C51U G81C G84U G152U — lower, ≤ -4.2
- A23C C72U C87A C96U C105U — lower, ≤ -4.2
- A24G U56A A121C G133C — lower, ≤ -4.2
- A22U U61G G86A U104G — lower, ≤ -4.2
- A23G C76U C85A — lower, ≤ -4.2
- A23U A30C C35A A106C — lower, ≤ -4.2
- A24U G42A U53A U90G A107U C108A U145C — lower, ≤ -4.2
- A26C G59A C76U G84U G88A G126A — lower, ≤ -4.2
- A24C A66C G71C G84U — lower, ≤ -4.2
- A23G A29U G59A G94A — lower, ≤ -4.2
- G25U C51U A73U C76U G83U C95U C96U G100U C118G A122G — lower, ≤ -4.2
- G25U G62A — lower, -2.84
- A24C C96G C118A — lower, -4.19
- A24U A66C A73G C79G C87A G88U C116A C118A — lower, ≤ -4.2
- G25U C36G A97G U109C — lower, ≤ -4.2
- G25C U44A A66G G71A A91U C131U C132G — lower, ≤ -4.2
- A26C U61C C85A U151G — lower, ≤ -4.2
- G25A A49G C95U — lower, -2.94
- A24U G34C U56A G84A G133A — lower, -3.92
- A24G U90C C123G G136C A147G — lower, ≤ -4.2
- A23U A47G U55A — lower, ≤ -4.2
- G25A C75A A91U — lower, ≤ -4.2
- A24U A39U A89C — lower, -4.16
- A24U U53A — higher, -0.894
- A24C U56A G86A A150G — lower, ≤ -4.2
- A24U A91G A97G A115U — lower, -4.19
- A24C A47C C57U A121U — lower, ≤ -4.2
- A24U A39G U82A C95G U135A — lower, -3.89
- A24C C125U — lower, ≤ -4.2
- A22U U55G C57U — higher, 0.196
- A23C A29G C96G U139G — lower, -4.19
- A23U A24U U56A A106C A150U — lower, -3.89
- A24U U61A C93U U101C — lower, -3.93
- G25C C57U — lower, -2.94
- G25U A26G C32G C85G A106G C129U G140C G143A — lower, ≤ -4.2
- G25A G68U U78C A91G C114G — lower, ≤ -4.2
- G25A U33C C35A A73C A91G G117A C118U — lower, ≤ -4.2
- A24C C35U C87G A98U C103U C125G — lower, ≤ -4.2
- A24G A26U A39U U53A C57U G59A G68U G86A C99A A106U — lower, -4.18
- A23C A26C A52U C63A C131U G141U U145C — lower, ≤ -4.2
- A23U C54G U61A C72A G86A G141A — lower, ≤ -4.2
- A24U A26G C51U A64U A66C C69U C108A C123A — lower, ≤ -4.2
- A24C C87A A106G U135C — lower, ≤ -4.2
- A22U G50C C63U G71A G84A G117U A122U — lower, -4
- A23G C103A — lower, -3.88
- G25C A119C G136A — lower, -3.75
- G25A A29C A40U G68C C93A A97U — lower, ≤ -4.2
- G25U C87U A122G — lower, -3.5
- G25C U53G C57A A120C G128A — lower, ≤ -4.2
- G25U G50U A73G U101G — lower, -2.68
- A24U C79A — lower, -4.12
- G25A A40G C43U G62C C85U G86A C95A G133U — lower, ≤ -4.2
- A22U U53A — higher, -1.05
- A24C A52G G84C G88U C95U C96U U102G — lower, ≤ -4.2
- A23C G81A A91U G143A — lower, ≤ -4.2
- A24U C57U G62A — higher, -0.097
- G25C A28U C54U G83A C99U G124A — lower, ≤ -4.2
- A24U A98G — higher, 0.444
- G25C C57A G83A G86U C96G A106G U127G — lower, ≤ -4.2
- G25C A37C C76A U101G U148G — lower, ≤ -4.2
- A26C G59U A60C U145A — lower, -2.83
- A23G A41C U44C A49C G58C A64C C85U A138G — lower, ≤ -4.2
- A23U U53A U55G C95U C103U C114U G126A G136U A150U — lower, ≤ -4.2
- G25U C43U U53A C87A A91C G140A — lower, ≤ -4.2
- A24C C79U — lower, ≤ -4.2
- A24C C43A U45A — lower, ≤ -4.2
- A24U C35U C96U C105U A147G — lower, -3.09
- A24G C27G A30U G48C G92U — lower, ≤ -4.2
- A23C G25A C32A C63U C87A — lower, ≤ -4.2
- A26C A29U C54G A91G A97U — lower, ≤ -4.2
- G25U C116U A122U — lower, -4.04
- A24U U31C C38U U82A G84A — higher, 0.365
- A24U U78C C87A — lower, ≤ -4.2
- A23G A41G U55A U90C C96G C99A — lower, ≤ -4.2
- A24G G70C C79U C95A C96G — lower, ≤ -4.2
- A23C C35U G65A A66U C76A U78G — lower, ≤ -4.2
- A24U C93U A98G C132U A142G — lower, -4.17
- A26C G65C G84A A89C G141C — lower, ≤ -4.2
- A23C C79U C96U C99A — lower, ≤ -4.2
- A23G G58A C87U A121C — lower, -3.82
- A23C A40U G48U G94C C99G U144A — lower, ≤ -4.2
- A24U U44A C57G G74U C76A G100A A138C — lower, ≤ -4.2
- A26C A39G G42U A60G U78C C93G G117A — lower, ≤ -4.2
- A23U C54U C57U G68A C87A A91G G133U — lower, ≤ -4.2
- A24G C43U A73G G83U U101G C105G U127C G140C — lower, ≤ -4.2
- G25C C99U — lower, -3.13
- A26C C38A G48U C63G C75U C87A C105A — lower, ≤ -4.2
- A24U C36U A60G G80A G94C — lower, -3.57
- A23G C54G U56A A138U G140U U146C — lower, ≤ -4.2
- A24G G88U — lower, ≤ -4.2
- A22U G83C G86U C108A C129U — lower, ≤ -4.2
- A24G A120U — lower, -3.9
- G25U C43U U61A G84U C85A A89U C93A C103A G141U — lower, ≤ -4.2
- A24U C27A G42C C75A U82G C96U C108A A138C — lower, ≤ -4.2
- A23C G50U C76U C79A C85U C99G — lower, ≤ -4.2
- A24U C27G C38U C87U A91G C93G G133U — lower, ≤ -4.2
- A24G C27U U31A A47C U77C C85U U102C U144C — lower, ≤ -4.2
- A22U U45A C57U G58A G59U C87A — lower, ≤ -4.2
- G25C G42C C57U G70A C87A G143A — lower, ≤ -4.2
- A26C C131U — higher, -0.797
- A22U G152A — the same, -2.39
- A24G C54U — lower, -2.83
- A24C U31C G68U U78C C85U — lower, ≤ -4.2
- A24G C27A G84U G86A C131A — lower, ≤ -4.2
- A24C U55A A60G A97U — lower, ≤ -4.2
- A26C U61A — lower, -3.34
- A23U G70U U78A G94A C95U C114U — lower, ≤ -4.2
- A23G C27A C32U G50C A73G C85G — lower, ≤ -4.2
- A23C A41C C54G U77A A91G C105G G126A G136A A137G — lower, ≤ -4.2
- G25C C99U C114G C118U — lower, ≤ -4.2
- A23U A106G A138U — lower, ≤ -4.2
- A24U C36G U111C C116A — lower, ≤ -4.2
- A24G A26U C38U A47U C85U C116U C125A — lower, ≤ -4.2
- A24G G25U C75G G80A C85G U130A A142C — lower, ≤ -4.2
- G25A C79G U90A U104A G117U — lower, ≤ -4.2
- A24G U55A — lower, -3.22
- G25A C54A G58A G84A A120G G126U — lower, -3.36
- A24U A30C C38U U45A G92U — lower, ≤ -4.2
- A24G A60G G68A G86C G124C — lower, ≤ -4.2
- A24U U44G A66C G143A — lower, -4.09
- A22U G70U C87A A119U — lower, ≤ -4.2
- G25U A49U C93U A119C — lower, -3.95
- A23C A41C C85A U90G G124U U135G — lower, ≤ -4.2
- G25A C35U G50C G88U C118G U151G — lower, ≤ -4.2
- A24U G65U A91C U104A A110G G140A U144G — lower, ≤ -4.2
- A23G C76G C87U A119G G140U — lower, ≤ -4.2
- A23G A47C C103G A122G U145A — lower, ≤ -4.2
- G25U G58U G84A — within 0.2 log units, -2.21
- G25U U53A A91C G92A C105G G141C — lower, ≤ -4.2
- A26C G58C A60U G71C C93G — lower, ≤ -4.2
- G25U G84U G117A — lower, -3.67
- A26C C27U C57A G68C C131G — lower, ≤ -4.2
- A23G C85A — lower, -2.98
- A24U C57G G92U A147U — higher, -0.341
- A23G C27U C93G C103G A150G — lower, ≤ -4.2
- A24U C93U — higher, -1.27
- A23C U56A G81A U90A C95G G143U — lower, ≤ -4.2
- A23U U56A — lower, -3.49
- A23U G48A A113G A120U — lower, ≤ -4.2
- A24G A30G A52C U53G G59A C87U G92U G128A U139A — lower, ≤ -4.2
- A23U G42U G58C G65U C75G G141U — lower, ≤ -4.2
- A24G A40U U61C A137C A142C — lower, ≤ -4.2
- G25U A28C G50C A52C C93G — lower, ≤ -4.2
- A23C G42C U77A G80C U101G — lower, ≤ -4.2
- G25A C87G A98U — lower, ≤ -4.2
- A24U G83C C99G — lower, -4.19
- A22U U55A U56A A97U — higher, -0.631
- A24C G58C C72G U130G — lower, ≤ -4.2
- G25C G46A G50U G83A C95A A97G U127G — lower, ≤ -4.2
- A24G C35U — lower, -3.09
- A23G G59U C75G U90C C129A — lower, ≤ -4.2
- A24G C38U — lower, ≤ -4.2
- G25U A98U — lower, -3.03
- A23C A37C U53A A64C U90C C96G U101G — lower, ≤ -4.2
- G25U A52U U145C — lower, -3.91
- A24U C54A — higher, -0.922
- A26C U56C G65A C75U A91U C96U — lower, ≤ -4.2
- A24U C76A C85A — higher, -1.65
- A24C A29G G46U C85U C129G C131A G141C — lower, ≤ -4.2
- A23G A40U C76U C87U A89G G133C — lower, ≤ -4.2
- A23U C63A C114G — lower, ≤ -4.2
- A24U C93U C125G G133A A142G A150U — lower, ≤ -4.2
- A23U U56A C93A U101G U127A A137U U139A C149A — lower, ≤ -4.2
- A26C A29G C51U U53G G68A A142C A150G G152A — lower, ≤ -4.2

Source: the RNAGym collection of RNA variant scans (doi:10.1073/pnas.2313332121)
